Test results as given in patent publication US20230380451A1, “MEANS AND METHODS TO DETOXIFY MYCOTOXINS” (priority 2020, published 2023).

How the values were obtained:
[1] = Storage stability in storage buffer at different temperatures, residual DON transformation activity; type: biochemical; conditions: storage buffer
Protocol: (§1) To determine the transformation of DON to epi-THS by Akr I-III, described herein, the following assay was performed. An assay buffer was prepared containing 40 ppm DON, 1 mM NADPH in Teorell Stenhagen (TS) buffer, pH 6.0 (Östling and Virtama, Acta Physiologica Scandinavica, 1946, 11:4, 289-293). Tubes containing the assay buffer were transferred in a heating block at 30° C. The reaction was started by addition of Akr I-III to a final concentration of 200 nM in a final reaction volume of 200 μL. Samples were taken before reaction start, and 2, 5, 10, 15 and 20 min after reaction start. DON transformation reactions in these samples were stopped by mixing with absolute methanol at a 1:2 ratio, followed by a 1:100 dilution with 40% methanol. The concentrations of DON and epi-THS in the samples were determined with liquid chromatography-mass spectrometry (LC-MS) on a Sciex 5500 triple quadrupole mass spectrometer coupled to Agilent 1290 series UHPLC system, using the following MS parameters: Acquisition duration: 4 min; Scan Type: MRM (MRM); Polarity: Negative; Ion Source: Turbo Spray.
The storage stability of Akr I-III was tested by incubation of 5 μM enzyme solutions in storage buffer (50 mM Tris pH 9.0, 0.5M NaCl, 50% Glycerol), for 60 min in a thermocycler (Mastercycler, Eppendorf) set to gradient mode from 30° C. to 50° C. Throughout the incubation, samples were removed and placed on ice until DON transformation assays were performed as described in Example 3 to determine enzyme activities. The starting activity at time 0 min was set to 100% and the relative residual activities were determined throughout the incubation. Akr I retained more than 33% activity during 60 min in pH 6 at temperatures from 29.9° C. to 46.0° C. Akr III retained 15% to 90% activity during 20 min in pH 6 at temperatures from 29.9° C. to 40.7° C.

[2] = Storage stability at different pH values, residual DON transformation activity; type: biochemical; conditions: storage at 30° C.
Protocol: as §1
The storage stability of Akr I-III at different pH values was tested by incubating 1 μM enzyme in TS buffer solutions with a pH of 3.0-10.0 for 4 h at 30° C. in standard 1.5 ml Eppendorf tubes. Every hour, a DON transformation assay was conducted as described in Example 3. The starting activity at time 0 min was set to 100% and the relative residual activities were determined throughout the incubation. For the DON transformation assays, 80 μl of the storage solution were added to an assay reaction with a final volume of 400 μl, which corresponds to a 1:5 dilution of the storage solution. Akr I retained more than 93% activity during 4 hours at 30° C. from pH 4.0-10.0. Akr II retained 30% to 93% activity during 4 hours at 30° C. from pH […] retained 27% to 85% activity during 4 hours at 30° C. from pH 4.0-9.0. Akr I-III retained more than 40% of their activity for 4 hours at 30° C. from pH 4.0 to pH 8.0.

B1: Akr II: artificial amino acid sequence, variant of a wild type aldo-keto reductase (protein)
chain: MRTTEIAQGLKVSNLCIGAGPLGGMPTAFGYDVSEERGIATVQAVFDSPINFMDTSSEYGGSEARIGKVIREGLMPKGFVISSKADAEGEGVGRRGDFSAKQVRASFELSLERLGLTHLDVYFLHDPEKFPFEQVMARGGAMEELLRLKDEGLVGLVGVAGGDVLEMARYVDTGSLDILLNYGRYTLLDRSADSLITKVSDAGMAFLNAGPYASGLLAAPRGGSAWYQYAPPDATALQAVDQLHELCESFDVSLRSVALQFSMRDPRITSTVVGLSRPERVRALLDDEAAEIPAELWEQLPAPLNGDIVLPG
modifications: ArkII
Relative DON transformation activity ([1]; 29.9° C., 0 min (starting activity set to 100%)): 100.00%
Relative DON transformation activity ([1]; 29.9° C., 5 min): 95.8%
Relative DON transformation activity ([1]; 29.9° C., 10 min): 91.6%
Relative DON transformation activity ([1]; 29.9° C., 20 min): 90.3%
Relative DON transformation activity ([1]; 29.9° C., 35 min): 89.4%
Relative DON transformation activity ([1]; 29.9° C., 50 min): 84.1%
Relative DON transformation activity ([1]; 29.9° C., 60 min): 86.8%
Relative DON transformation activity ([1]; 35.3° C., 0 min (starting activity set to 100%)): 100.00%
Relative DON transformation activity ([1]; 35.3° C., 5 min): 91.9%
Relative DON transformation activity ([1]; 35.3° C., 10 min): 92.5%
Relative DON transformation activity ([1]; 35.3° C., 20 min): 86.0%
Relative DON transformation activity ([1]; 35.3° C., 35 min): 77.4%
Relative DON transformation activity ([1]; 35.3° C., 50 min): 49.6%
Relative DON transformation activity ([1]; 35.3° C., 60 min): 46.4%
Relative DON transformation activity ([1]; 37.9° C., 0 min (starting activity set to 100%)): 100.00%
Relative DON transformation activity ([1]; 37.9° C., 5 min): 90.5%
Relative DON transformation activity ([1]; 37.9° C., 10 min): 80.2%
Relative DON transformation activity ([1]; 37.9° C., 20 min): 65.0%
Relative DON transformation activity ([1]; 37.9° C., 35 min): 38.1%
Relative DON transformation activity ([1]; 37.9° C., 50 min): 10.6%
Relative DON transformation activity ([1]; 37.9° C., 60 min): 6.2%
Relative DON transformation activity ([1]; 40.7° C., 0 min (starting activity set to 100%)): 100.00%
Relative DON transformation activity ([1]; 40.7° C., 5 min): 61.5%
Relative DON transformation activity ([1]; 40.7° C., 10 min): 56.1%
Relative DON transformation activity ([1]; 40.7° C., 20 min): 15.5%
Relative DON transformation activity ([1]; 40.7° C., 35 min): 11.3%
Relative DON transformation activity ([1]; 40.7° C., 50 min): 0.00%
Relative DON transformation activity ([1]; 40.7° C., 60 min): 0.00%
Relative DON transformation activity ([1]; 43.4° C., 0 min (starting activity set to 100%)): 100.00%
Relative DON transformation activity ([1]; 43.4° C., 5 min): 39.2%
Relative DON transformation activity ([1]; 43.4° C., 10 min): 34.9%
Relative DON transformation activity ([1]; 43.4° C., 20 min): 21.9%
Relative DON transformation activity ([1]; 43.4° C., 35 min): 7.1%
Relative DON transformation activity ([1]; 43.4° C., 50 min): 0.00%
Relative DON transformation activity ([1]; 43.4° C., 60 min): 0.00%
Relative DON transformation activity ([1]; 46.0° C., 0 min (starting activity set to 100%)): 100.00%
Relative DON transformation activity ([1]; 46.0° C., 5 min): 2.9%
Relative DON transformation activity ([1]; 46.0° C., 10 min): 4.7%
Relative DON transformation activity ([1]; 46.0° C., 20 min): 0.00%
Relative DON transformation activity ([1]; 46.0° C., 35 min): 2.7%
Relative DON transformation activity ([1]; 46.0° C., 50 min): 0.00%
Relative DON transformation activity ([1]; 46.0° C., 60 min): 0.00%
Relative DON transformation activity ([1]; 50.8° C., 0 min (starting activity set to 100%)): 100.00%
Relative DON transformation activity ([1]; 50.8° C., 5 min): 4.7%
Relative DON transformation activity ([1]; 50.8° C., 10 min): 5.7%
Relative DON transformation activity ([1]; 50.8° C., 20 min): 9.4%
Relative DON transformation activity ([1]; 50.8° C., 35 min): 2.4%
Relative DON transformation activity ([1]; 50.8° C., 50 min): 0.00%
Relative DON transformation activity ([1]; 50.8° C., 60 min): 0.00%
Relative DON-transformation activity ([2]; pH 3.0, 0 h (starting activity set to 100%)): 100.0%
Relative DON-transformation activity ([2]; pH 3.0, 1 h): 34.5%
Relative DON-transformation activity ([2]; pH 3.0, 2 h): 1.1%
Relative DON-transformation activity ([2]; pH 3.0, 3 h): 0.0%
Relative DON-transformation activity ([2]; pH 3.0, 4 h): 0.0%
Relative DON-transformation activity ([2]; pH 4.0, 0 h (starting activity set to 100%)): 100.0%
Relative DON-transformation activity ([2]; pH 4.0, 1 h): 99.3%
Relative DON-transformation activity ([2]; pH 4.0, 2 h): 96.6%
Relative DON-transformation activity ([2]; pH 4.0, 3 h): 87.1%
Relative DON-transformation activity ([2]; pH 4.0, 4 h): 89.0%
Relative DON-transformation activity ([2]; pH 5.0, 0 h (starting activity set to 100%)): 100.0%
Relative DON-transformation activity ([2]; pH 5.0, 1 h): 100.1%
Relative DON-transformation activity ([2]; pH 5.0, 2 h): 99.8%
Relative DON-transformation activity ([2]; pH 5.0, 3 h): 99.3%
Relative DON-transformation activity ([2]; pH 5.0, 4 h): 92.4%
Relative DON-transformation activity ([2]; pH 6.0, 0 h (starting activity set to 100%)): 100.0%
Relative DON-transformation activity ([2]; pH 6.0, 1 h): 77.3%
Relative DON-transformation activity ([2]; pH 6.0, 2 h): 85.1%
Relative DON-transformation activity ([2]; pH 6.0, 3 h): 77.6%
Relative DON-transformation activity ([2]; pH 6.0, 4 h): 61.8%
Relative DON-transformation activity ([2]; pH 7.0.0, 0 h (starting activity set to 100%)): 100.0%
Relative DON-transformation activity ([2]; pH 7.0.0, 1 h): 79.6%
Relative DON-transformation activity ([2]; pH 7.0.0, 2 h): 64.5%
Relative DON-transformation activity ([2]; pH 7.0.0, 3 h): 56.9%
Relative DON-transformation activity ([2]; pH 7.0.0, 4 h): 57.4%
Relative DON-transformation activity ([2]; pH 8.0, 0 h (starting activity set to 100%)): 100.0%
Relative DON-transformation activity ([2]; pH 8.0, 1 h): 85.1%
Relative DON-transformation activity ([2]; pH 8.0, 2 h): 68.3%
Relative DON-transformation activity ([2]; pH 8.0, 3 h): 53.2%
Relative DON-transformation activity ([2]; pH 8.0, 4 h): 40.9%
Relative DON-transformation activity ([2]; pH 9.0.0, 0 h (starting activity set to 100%)): 100.0%
Relative DON-transformation activity ([2]; pH 9.0.0, 1 h): 76.5%
Relative DON-transformation activity ([2]; pH 9.0.0, 2 h): 54.7%
Relative DON-transformation activity ([2]; pH 9.0.0, 3 h): 36.1%
Relative DON-transformation activity ([2]; pH 9.0.0, 4 h): 29.9%
Relative DON-transformation activity ([2]; pH 10.0, 0 h (starting activity set to 100%)): 100.0%
Relative DON-transformation activity ([2]; pH 10.0, 1 h): 54.4%
Relative DON-transformation activity ([2]; pH 10.0, 2 h): 37.7%
Relative DON-transformation activity ([2]; pH 10.0, 3 h): 13.9%
Relative DON-transformation activity ([2]; pH 10.0, 4 h): 7.2%
